The values below are quoted from earlier work in paper doi:10.1101/2024.07.26.605324.

Broadly, the pKa is the pH at which an ionisable group is half protonated.

Several values for one entry are separate records, joined by “and”; a condition that tells them apart may be missing. Equal values may be shown once.

This series concerns the target His27 (position 27, …). Put plainly: NMR. The conditions noted are these: 243–263 K; membrane-bound tetramer, wild type with both His19 and His27 tetrads.

With MLEPFQILSICSFILSALHFIAWTIGHLNQIKR [Influenza B virus matrix protein 2 (BM2) proton channel (Influenza B virus)], the pKa was 5.9±0.1 and 5.8±0.1.
